Measured values: patent publication US11260115B1, “Peptides and combination of peptides for use in immunotherapy against CLL and other cancers” (immatics biotechnologies GmbH, priority 2015, dated 2022)

Molecular target: HLA-A*02:01 (Homo sapiens, UniProt P04439, D140Y/D185E/D98H/E176V/E277Q/G131W/G231S/I119V/I121R/I166T/I218V/L300P/L318F/N151K/N90K/P208A/P217A/Q86G/Q94H/R138H/R169H/T345S)
Test: MHC binding assay (UV-ligand exchange, β2m ELISA, peptide exchange yield)
Conditions: binding to HLA-A*02:01
Excerpt: Candidate peptides for T cell based therapies according to the present invention were further tested for their MHC binding capacity (affinity). The individual peptide-MHC complexes were produced by UV-ligand exchange, where a UV-sensitive peptide is cleaved upon UV-irradiation, and exchanged with the peptide of interest as analyzed. Only peptide candidates that can effectively bind and stabilize the peptide-receptive MHC molecules prevent dissociation of the MHC complexes. To determine the yield of the exchange reaction, an ELISA was performed based on the detection of the light chain (β2m) of stabilized MHC complexes. The assay was performed as generally described in Rodenko et al. (Rodenko et al., 2006).
96 well MAXISorp plates (NUNC) were coated over night with 2 ug/ml streptavidin in PBS at room temperature, washed 4× and blocked for 1 h at 37° C. in 2% BSA containing blocking buffer. Refolded HLA-A*02:01/MLA-001 monomers served as standards, covering the range of 15-500 ng/ml. Peptide-MHC monomers of the UV-exchange reaction were diluted 100 fold in blocking buffer. Samples were incubated for 1 h at 37° C., washed four times, incubated with 2 ug/ml HRP conjugated anti-β2m for 1 h at 37° C., washed again and detected with TMB solution that is stopped with […]. Absorption was measured at 450 nm. Candidate peptides that show a high exchange yield (preferably higher than 50%, most preferred higher than 75%) are generally preferred for a generation and production of antibodies or fragments thereof, and/or T cell receptors or fragments thereof, as they show sufficient avidity to the MHC molecules and prevent dissociation of the MHC complexes.
Table 11: MHC class I binding scores. Binding of HLA-class I restricted peptides to HLA-A*02:01 was ranged by peptide exchange yield: ≥10%=+; ≥20%=++; ≥50=+++; ≥75%=++++

| Substance | Peptide Exchange (MHC class I binding score, peptide exchange yield) |
| --- | --- |
| 1 (AIPPSFASIFL; listed as Homo sapiens) [compound 1] | “+++” (>50 = +++) |
| 3 (VIAELPPKV; listed as Homo sapiens) [compound 3] | “++” (>20% = ++) |
| 4 (VIAELPPKVSV; listed as Homo sapiens) [compound 4] | “+++” (>50 = +++) |
| 5 (ALIFKIASA; listed as Homo sapiens) [compound 5] | “+++” (>50 = +++) |
| 6 (ALDTLEDDMTI; listed as Homo sapiens) [compound 6] | “+++” (>50 = +++) |
| 7 (ALLERTGYTL; listed as Homo sapiens) [compound 7] | “+++” (>50 = +++) |
| 8 (ALAASALPALV; listed as Homo sapiens) [compound 8] | “+++” (>50 = +++) |
| 9 (ALCDTLITV; listed as Homo sapiens) [compound 9] | “+++” (>50 = +++) |
| 10 (FVYGESVEL; listed as Homo sapiens) [compound 10] | “+++” (>50 = +++) |
| 11 (ALFTFSPLTV; listed as Homo sapiens) [compound 11] | “+++” (>50 = +++) |
| 12 (ALGEDEITL; listed as Homo sapiens) [compound 12] | “+++” (>50 = +++) |
| 13 (VVDGMPPGV; listed as Homo sapiens) [compound 13] | “+++” (>50 = +++) |
| 14 (ALLRLLPGL; listed as Homo sapiens) [compound 14] | “+++” (>50 = +++) |
| 15 (ALPEVSVEA; listed as Homo sapiens) [compound 15] | “+++” (>50 = +++) |
| 16 (ALPGGAAVAAV; listed as Homo sapiens) [compound 16] | “++++” (>75% = ++++) |
| 18 (LLGEFSIKM; listed as Homo sapiens) [compound 18] | “+++” (>50 = +++) |
| 19 (QVMEKLAAV; listed as Homo sapiens) [compound 19] | “+++” (>50 = +++) |
| 20 (ALVDPGPDFVV; listed as Homo sapiens) [compound 20] | “+++” (>50 = +++) |

Second part, the substance after the results:

| Peptide Exchange (MHC class I binding score, peptide exchange yield) | Substance |
| --- | --- |
| “+++” (>50 = +++) | 21 (ALWAGLLTL; listed as Homo sapiens) [compound 21] |
| “+++” (>50 = +++) | 22 (ALWDPVIEL; listed as Homo sapiens) [compound 22] |
| “++++” (>75% = ++++) | 23 (ALYLTEVFL; listed as Homo sapiens) [compound 23] |
| “+++” (>50 = +++) | 24 (AMAGDVVYA; listed as Homo sapiens) [compound 24] |
| “++” (>20% = ++) | 25 (ATYSGLESQSV; listed as Homo sapiens) [compound 25] |
| “+++” (>50 = +++) | 27 (AVLGLVWLL; listed as Homo sapiens) [compound 27] |
| “++” (>20% = ++) | 28 (AVLHLLLSV; listed as Homo sapiens) [compound 28] |
| “+++” (>50 = +++) | 29 (AVLQAVTAV; listed as Homo sapiens) [compound 29] |
| “+++” (>50 = +++) | 30 (ELLEGSEIYL; listed as Homo sapiens) [compound 30] |
| “+++” (>50 = +++) | 31 (ELMHGVAGV; listed as Homo sapiens) [compound 31] |
